# Reference: publication PMC3968096, “Discovering Aptamers by Cell-SELEX against Human Soluble Growth Factors Ectopically Expressed on Yeast Cell Surface”
# B1: hVap1_T1979 (structured_DNA)
# DNA: TCTAGCCCACTGCATAGAGGTAGCCACGTATGTGGGTGTTACCCATTCGTAGCTACCGGTG
# Molecular target: VEGF165 (soluble) (human, UniProt P15692-4 27-191)
# Test: F-EMSA; 1 mM Mg2+; 10 mM HEPES pH 7.9, 125 mM NaCl, 25 mM KCl, 1 mM MgCl2; F-EMSA at room temperature for 2 h, 5% PAGE at 4 C; flow cytometry in the same buffer
# Conditions: protein: recombinant, chain copies: 2, label: 5' fluorescein (F-EMSA), 5' biotin (flow)
# Chain of VEGF165 (soluble) (P15692 other isoform, or with tags, fused parts or gaps): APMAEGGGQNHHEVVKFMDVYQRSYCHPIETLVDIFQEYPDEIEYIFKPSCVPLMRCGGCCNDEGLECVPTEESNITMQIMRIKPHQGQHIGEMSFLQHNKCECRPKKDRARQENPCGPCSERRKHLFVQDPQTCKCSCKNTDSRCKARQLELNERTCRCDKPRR
binder,measurement,setting,value
TCTAGCCCACTGCATAGAGGTAGCCACGTATGTTCGTGGCTACCGGTG (structured_DNA) [hVap1_Stem],Kd,two predicted stem-loops,5.6 ± 0.3 nM
TCTAGCCCACTGCATAGAGGTAGCTACCGGTG (structured_DNA) [hVap1_SST],Kd,stem-loop plus shortened second stem-loop,2.5 ± 0.2 nM
B1,Kd,predicted stem-loops,1.7 ± 0.1 nM
